Data: US20160115217A1

Columns and labels:
[1] = target: Notch1 (full-length receptor expressed on cells); experiment: cell-based or functional assay
[2] = target: Flt1 (VEGFR-1) on Ad-N1IC-transduced HUVEC (human) (UniProt P17948); experiment: cell-based or functional assay
Sequence of Flt1 (VEGFR-1) on Ad-N1IC-transduced HUVEC (human) (P17948 27-1338): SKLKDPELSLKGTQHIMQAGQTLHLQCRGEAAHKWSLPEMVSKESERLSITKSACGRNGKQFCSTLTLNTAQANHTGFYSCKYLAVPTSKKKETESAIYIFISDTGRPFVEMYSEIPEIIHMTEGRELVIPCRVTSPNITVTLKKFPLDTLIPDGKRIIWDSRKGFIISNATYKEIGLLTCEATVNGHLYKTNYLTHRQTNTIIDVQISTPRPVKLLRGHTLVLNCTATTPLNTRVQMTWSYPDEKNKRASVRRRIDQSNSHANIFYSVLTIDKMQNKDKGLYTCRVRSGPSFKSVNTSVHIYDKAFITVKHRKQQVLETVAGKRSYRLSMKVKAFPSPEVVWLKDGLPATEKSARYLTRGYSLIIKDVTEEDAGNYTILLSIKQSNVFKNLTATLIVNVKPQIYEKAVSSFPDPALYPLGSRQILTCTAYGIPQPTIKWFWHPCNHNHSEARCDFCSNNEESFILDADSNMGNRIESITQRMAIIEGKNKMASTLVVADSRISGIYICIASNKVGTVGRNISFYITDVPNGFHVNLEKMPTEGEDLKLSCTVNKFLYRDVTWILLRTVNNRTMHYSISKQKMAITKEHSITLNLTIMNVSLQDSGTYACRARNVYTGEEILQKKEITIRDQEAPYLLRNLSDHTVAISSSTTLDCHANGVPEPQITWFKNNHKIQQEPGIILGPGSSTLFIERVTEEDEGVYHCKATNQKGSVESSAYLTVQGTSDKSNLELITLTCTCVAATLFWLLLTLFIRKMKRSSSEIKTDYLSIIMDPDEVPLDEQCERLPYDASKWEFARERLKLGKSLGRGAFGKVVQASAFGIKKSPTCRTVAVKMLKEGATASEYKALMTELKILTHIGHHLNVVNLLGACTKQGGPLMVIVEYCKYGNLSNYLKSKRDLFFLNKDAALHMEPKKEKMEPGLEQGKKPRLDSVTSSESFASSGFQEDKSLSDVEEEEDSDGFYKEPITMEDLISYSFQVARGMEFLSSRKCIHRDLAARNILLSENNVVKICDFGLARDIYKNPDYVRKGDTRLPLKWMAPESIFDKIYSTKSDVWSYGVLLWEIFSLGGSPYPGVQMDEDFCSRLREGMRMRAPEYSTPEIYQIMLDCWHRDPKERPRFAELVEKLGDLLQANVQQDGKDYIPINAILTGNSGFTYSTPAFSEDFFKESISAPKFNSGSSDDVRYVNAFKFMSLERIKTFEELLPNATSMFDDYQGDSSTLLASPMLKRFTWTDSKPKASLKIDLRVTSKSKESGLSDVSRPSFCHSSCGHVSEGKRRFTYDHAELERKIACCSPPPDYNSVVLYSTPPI

Row | Substance | Hes1 reporter gene activity [1] [fold] | HUVEC buds containing multiple filopodia [2] [%]
1 | Jagged1 (ligand) | 3.7 | –
2 | P1GF (placental growth factor) (ligand) | – | 250
